Sequences and labels used below:
B1: HDV Ribozyme (parent)
chain: GGCCGGCAUGGUCCCAGCCUCCUCGCUGGCGCCGGCUGGGCAACAUUCCGAGGGGACCGUCCCCUCGGUAAUGGCGAAUGGGACCCA

In the data set the parent is B1. The data set can be described thus: self-cleavage, relative activity (ratio to wild type); higher = more cleavage; co-transcriptional.
Turning to G10U C44A, the self-cleavage turned out to be 0.277.

G10U C44G: the self-cleavage amounted to 0.296.

On to G10C U12G, for which the self-cleavage was 0.

As to G10C G54C, the self-cleavage was 1.09.

Consider G10U A83G, for which the self-cleavage worked out at 0.221.

In the case of G10U A83U, the self-cleavage amounted to 0.177.

Turning to G10U C13G, the self-cleavage was 0.

For G10U C13A, the self-cleavage amounted to 0.0332.

For G10A A43C, the self-cleavage amounted to 0.176.

G10A G74A: the self-cleavage stood at 0.101.

Consider G10A G74U, for which the self-cleavage came to 0.257.

For the variant G10A G25U, the self-cleavage came out at 0.0678.

Regarding G10A G31C, the self-cleavage is 0.198.

For G10A G31U, the self-cleavage came to 0.226.

On to G10C G34C, for which the self-cleavage was 0.289.

Turning to G10C C26A, the self-cleavage was 1.12.

Regarding G10C C26G, the self-cleavage is 1.14.

As to G10A C41G, the self-cleavage is 0.68.

Consider G10A C41U, for which the self-cleavage was determined as 0.607.

Take G10A A42U: the self-cleavage was found to be 0.244.

With G10A A42G, the self-cleavage amounted to 0.251.

Turning to G10A A42C, the self-cleavage was determined as 0.0875.

For U9G G53C, the self-cleavage came out at 0.939.

Consider U9G U69C, for which the self-cleavage was found to be 1.25.

As for G10A U69G, the self-cleavage was 0.554.

As to G10A U69A, the self-cleavage is 0.677.

Consider G10A C61A, for which the self-cleavage was found to be 0.674.

On to G10A C61G, for which the self-cleavage amounted to 0.844.

Turning to G10C G40C, the self-cleavage is 0.264.

For the variant G10A G28C, the self-cleavage turned out to be 0.0683.

Regarding G10A G28A, the self-cleavage turned out to be 0.0336.

For the variant G10A G28U, the self-cleavage stood at 0.0848.

As for G10C C75G, the self-cleavage was 0.115.

U9G G82U: the self-cleavage came out at 0.767.

For G10C C30A, the self-cleavage was 0.107.

For G10C C30G, the self-cleavage amounted to 0.212.

As to G10C U37G, the self-cleavage was determined as 0.262.

In the case of G10A C85G, the self-cleavage was 0.892.

Turning to G10C A42C, the self-cleavage was 0.142.

As to U9G U37A, the self-cleavage stood at 0.

In the case of G10A C30U, the self-cleavage stood at 0.248.

With G10A C30A, the self-cleavage amounted to 0.0913.

As to G10A C86A, the self-cleavage stood at 0.82.

For the variant G10A C86G, the self-cleavage stood at 0.639.

For the variant G10A A78C, the self-cleavage was 0.113.

For the variant G10A A78U, the self-cleavage is 0.0382.

Consider U9G G73U, for which the self-cleavage is 0.0831.

With G10A U60G, the self-cleavage was 0.748.

As for G10A A51C, the self-cleavage turned out to be 0.623.

Regarding G10A A51G, the self-cleavage was 0.546.

On to U9G U27C, for which the self-cleavage is 0.68.

U9G U27A: the self-cleavage turned out to be 0.437.

In the case of U9G U27G, the self-cleavage stood at 0.935.

As for G10C A56C, the self-cleavage came out at 0.978.

In the case of G10A G50U, the self-cleavage turned out to be 0.67.

Consider G10C A83C, for which the self-cleavage came out at 0.0615.

G10C A83U: the self-cleavage was 0.465.

On to G10C C22G, for which the self-cleavage is 0.

In the case of G10C C22U, the self-cleavage worked out at 0.326.

Turning to G10C C22A, the self-cleavage came out at 0.108.

G10A U12G: the self-cleavage came to 0.

Take G10A U12A: the self-cleavage came to 0.0733.

For the variant G10U C19U, the self-cleavage is 0.144.

Take G10A G81A: the self-cleavage is 0.187.

For G10A G81U, the self-cleavage is 0.0468.

In the case of G10A G81C, the self-cleavage was 0.22.

Consider G10C U65G, for which the self-cleavage was 0.997.

As to G10C U65A, the self-cleavage was 0.665.

For G10U C22G, the self-cleavage came out at 0.0623.

With G10U C22A, the self-cleavage stood at 0.0941.

For U9G G59U, the self-cleavage turned out to be 1.06.

Consider U9G G59A, for which the self-cleavage was found to be 1.16.

Consider G10A C36A, for which the self-cleavage is 0.0687.

G10A C36U: the self-cleavage came out at 0.396.

As to G10C G74U, the self-cleavage was determined as 0.166.

With G10C G74A, the self-cleavage is 0.119.

As to G10C G74C, the self-cleavage was found to be 0.161.

Take U9G U23A: the self-cleavage stood at 0.782.

Turning to U9G U23C, the self-cleavage amounted to 0.923.

On to U9G U23G, for which the self-cleavage amounted to 0.95.

For the variant G10A G82A, the self-cleavage was 0.176.

As to G10A G82U, the self-cleavage came to 0.36.

In the case of G10C G68C, the self-cleavage was 0.705.

Consider G10C G68A, for which the self-cleavage was determined as 0.706.

U9G G52U: the self-cleavage came out at 1.03.

For G10A C24A, the self-cleavage came out at 0.367.

For G10U C48G, the self-cleavage stood at 0.767.

With G10U C48U, the self-cleavage is 0.782.

On to G10C G52C, for which the self-cleavage is 0.78.

In the case of G10U A56U, the self-cleavage turned out to be 0.893.

As to G10U A56G, the self-cleavage came to 0.689.

Consider U9G U46A, for which the self-cleavage was found to be 0.312.

In the case of U9G U46G, the self-cleavage was 0.646.

As for G10A C15G, the self-cleavage came out at 0.166.

In the case of G10C U23A, the self-cleavage was 1.04.

Regarding G10C U23G, the self-cleavage is 0.332.

G10U C24G: the self-cleavage worked out at 0.0886.

On to G10U C24A, for which the self-cleavage was determined as 0.328.

With G10U C24U, the self-cleavage is 0.427.

With G10A G68C, the self-cleavage was 0.453.

Take G10A G68U: the self-cleavage amounted to 0.562.

Turning to G10A G68A, the self-cleavage was found to be 0.604.

Consider G10C A51G, for which the self-cleavage worked out at 0.72.

In the case of G10C A51U, the self-cleavage came to 0.923.

Consider G10U A42U, for which the self-cleavage worked out at 0.174.

With G10U A42C, the self-cleavage worked out at 0.149.

For the variant G10U A42G, the self-cleavage was 0.325.

Take G10C U79G: the self-cleavage is 0.346.

Take G10C U79A: the self-cleavage is 0.277.

Turning to G10U A78G, the self-cleavage was determined as 0.449.

In the case of G10U A78C, the self-cleavage was 0.0499.

On to G10C A70U, for which the self-cleavage was found to be 0.65.

Consider G10C G28A, for which the self-cleavage is 0.0723.

For G10C G39C, the self-cleavage is 0.359.

As for U9G G81C, the self-cleavage turned out to be 0.443.

As for G10U A16U, the self-cleavage was determined as 0.846.

For the variant G10A G53A, the self-cleavage amounted to 0.841.

In the case of G10A G53U, the self-cleavage was 0.857.

As to G10A G53C, the self-cleavage worked out at 0.742.

For the variant G10C U69C, the self-cleavage turned out to be 1.21.

As to G10C U69A, the self-cleavage came to 0.831.

For G10C U69G, the self-cleavage turned out to be 0.997.

G10C C86G: the self-cleavage is 0.538.

With G10C C86U, the self-cleavage was 1.03.

For the variant G10U A71C, the self-cleavage came to 0.604.

In the case of U9G U47C, the self-cleavage stood at 1.04.

In the case of G10C G29A, the self-cleavage was 0.032.

Take G10A A16C: the self-cleavage is 0.867.

On to G10A A16G, for which the self-cleavage came out at 0.584.

On to G10A A16U, for which the self-cleavage came to 0.929.

As for G10A G40C, the self-cleavage came to 0.302.

With U9G G54U, the self-cleavage amounted to 0.831.

On to G10A A83G, for which the self-cleavage came out at 0.258.

G10A C21G: the self-cleavage was found to be 0.126.

On to G10A C21U, for which the self-cleavage turned out to be 0.0453.

With G10A C21A, the self-cleavage was determined as 0.

For G10A C49A, the self-cleavage turned out to be 0.665.

As for G10A C49U, the self-cleavage amounted to 0.831.

Take G10C A16C: the self-cleavage was determined as 0.88.

For G10C G55C, the self-cleavage was 0.759.

Consider G10C G55U, for which the self-cleavage amounted to 0.831.

As to G10C G25C, the self-cleavage came to 0.178.

Take G10A C63G: the self-cleavage was determined as 0.566.

Take G10C C48G: the self-cleavage worked out at 1.17.

With G10C C48U, the self-cleavage turned out to be 0.911.

As to G10C C48A, the self-cleavage is 0.853.

For the variant U9G G80U, the self-cleavage was 0.289.

Consider U9G G80A, for which the self-cleavage worked out at 0.516.

G10U C57A: the self-cleavage is 0.749.

For the variant G10A U37A, the self-cleavage was found to be 0.0944.

On to G10A U37G, for which the self-cleavage is 0.198.

As to G10A U37C, the self-cleavage was found to be 0.695.

Take G10A G17U: the self-cleavage was found to be 0.525.

On to G10A G17C, for which the self-cleavage worked out at 0.341.

Take U9G U12G: the self-cleavage stood at 1.11.

On to U9G U12A, for which the self-cleavage was found to be 1.11.

G10C C44G: the self-cleavage turned out to be 0.415.

Turning to G10C C44A, the self-cleavage was 0.615.

With G10C G35C, the self-cleavage stood at 0.102.

In the case of G10C G35A, the self-cleavage stood at 0.525.

With G10C G53A, the self-cleavage stood at 0.95.

With G10C G31U, the self-cleavage worked out at 0.219.

For the variant G10A G59C, the self-cleavage was 0.684.

Turning to G10A G59A, the self-cleavage was determined as 0.853.

Turning to G10A U23A, the self-cleavage turned out to be 0.596.

G10A U23G: the self-cleavage was found to be 0.181.

For the variant G10A U23C, the self-cleavage is 0.554.

Values taken from the RNAGym collection of RNA variant scans (doi:10.7554/elife.80360).
